The labels stand for the following.
B1: V165A: NTR point mutant (protein, UniProt P20789 1-424, looked up, variant V165A)
Neurotensin receptor type 1: MHLNSSVPQGTPGEPDAQPFSGPQSEMEATFLALSLSNGSGNTSESDTAGPNSDLDVNTDIYSKVLVTAIYLALFVVGTVGNSVTAFTLARKKSLQSLQSTVHYHLGSLALSDLLILLLAMPVELYNFIWVHHPWAFGDAGCRGYYFLRDACTYATALNVASLSAERYLAICHPFKAKTLMSRSRTKKFISAIWLASALLAIPMLFTMGLQNRSGDGTHPGGLVCTPIVDTATVKVVIQVNTFMSFLFPMLVISILNTVIANKLTVMVHQAAEQGRVCTVGTHNGLEHSTFNMTIEPGRVQALRHGVLVLRAVVIAFVVCWLPYHVRRLMFCYISDEQWTTFLFDFYHYFYMLTNALFYVSSAINPILYNLVSANFRQVFLSTLACLCPGWRHRRKKRPTFSRKPNSMSSNHAFSTSATRETLY
B2: A73L: NTR point mutant (protein, UniProt P20789 1-424, looked up, variant A73L)
Neurotensin receptor type 1: B1 Neurotensin receptor type 1 with A73L, A165V
B3: A90L: NTR point mutant (protein, UniProt P20789 1-424, looked up, variant A90L)
Neurotensin receptor type 1: B1 Neurotensin receptor type 1 with A90L, A165V
B4: S362A: NTR point mutant (protein, UniProt P20789 1-424, looked up, variant S362A)
Neurotensin receptor type 1: B1 Neurotensin receptor type 1 with A165V, S362A
B5: A69L: NTR point mutant (protein, UniProt P20789 1-424, looked up, variant A69L)
Neurotensin receptor type 1: B1 Neurotensin receptor type 1 with A69L, A165V
B6: Y351A: NTR point mutant (protein, UniProt P20789 1-424, looked up, variant Y351A)
Neurotensin receptor type 1: B1 Neurotensin receptor type 1 with A165V, Y351A
B7: K176A: NTR point mutant (protein, UniProt P20789 1-424, looked up, variant K176A)
Neurotensin receptor type 1: B1 Neurotensin receptor type 1 with A165V, K176A
B8: N262A: NTR point mutant (protein, UniProt P20789 1-424, looked up, variant N262A)
Neurotensin receptor type 1: B1 Neurotensin receptor type 1 with A165V, N262A
B9: D139A: NTR point mutant (protein, UniProt P20789 1-424, looked up, variant D139A)
Neurotensin receptor type 1: B1 Neurotensin receptor type 1 with D139A, A165V
B10: W391A: NTR point mutant (protein, UniProt P20789 1-424, looked up, variant W391A)
Neurotensin receptor type 1: B1 Neurotensin receptor type 1 with A165V, W391A
B11: V268A: NTR point mutant (protein, UniProt P20789 1-424, looked up, variant V268A)
Neurotensin receptor type 1: B1 Neurotensin receptor type 1 with A165V, V268A
B12: T207A: NTR point mutant (protein, UniProt P20789 1-424, looked up, variant T207A)
Neurotensin receptor type 1: B1 Neurotensin receptor type 1 with A165V, T207A
B13: A155L: NTR point mutant (protein, UniProt P20789 1-424, looked up, variant A155L)
Neurotensin receptor type 1: B1 Neurotensin receptor type 1 with A155L, A165V
B14: L109A: NTR point mutant (protein, UniProt P20789 1-424, looked up, variant L109A)
Neurotensin receptor type 1: B1 Neurotensin receptor type 1 with L109A, A165V
B15: S100A: NTR point mutant (protein, UniProt P20789 1-424, looked up, variant S100A)
Neurotensin receptor type 1: B1 Neurotensin receptor type 1 with S100A, A165V
B16: S182A: NTR point mutant (protein, UniProt P20789 1-424, looked up, variant S182A)
Neurotensin receptor type 1: B1 Neurotensin receptor type 1 with A165V, S182A
B17: F147A: NTR point mutant (protein, UniProt P20789 1-424, looked up, variant F147A)
Neurotensin receptor type 1: B1 Neurotensin receptor type 1 with F147A, A165V
B18: F189A: NTR point mutant (protein, UniProt P20789 1-424, looked up, variant F189A)
Neurotensin receptor type 1: B1 Neurotensin receptor type 1 with A165V, F189A
B19: L111A: NTR point mutant (protein, UniProt P20789 1-424, looked up, variant L111A)
Neurotensin receptor type 1: B1 Neurotensin receptor type 1 with L111A, A165V
B20: M293A: NTR point mutant (protein, UniProt P20789 1-424, looked up, variant M293A)
Neurotensin receptor type 1: B1 Neurotensin receptor type 1 with A165V, M293A
B21: L256A: NTR point mutant (protein, UniProt P20789 1-424, looked up, variant L256A)
Neurotensin receptor type 1: B1 Neurotensin receptor type 1 with A165V, L256A
B22: T179A: NTR point mutant (protein, UniProt P20789 1-424, looked up, variant T179A)
Neurotensin receptor type 1: B1 Neurotensin receptor type 1 with A165V, T179A
B23: Nag7n: NTR mutant F358A+H103A+I260A+F342A (protein)
chain: TSESDTAGPNSDLDVNTDIYSKVLVTAIYLALFVVGTVGNSVTAFTLARKKSLQSLQSTVAYHLGSLALSDLLILLLAMPVELYNFIWVHHPWAFGDAGCRGYYFLRDACTYATALNVASLSVERYLAICHPFKAKTLMSRSRTKKFISAIWLASALLAIPMLFTMGLQNRSGDGTHPGGLVCTPIVDTATVKVVIQVNTFMSFLFPMLVISILNTVAANKLTVMVHQAAEQGRVCTVGTHNGLEHSTFNMTIEPGRVQALRHGVLVLRAVVIAFVVCWLPYHVRRLMFCYISDEQWTTALFDFYHYFYMLTNALAYVSSAINPILYNLVSANFRQVFLSTLACLCPGWRHRRKKRPTFSRKPNSMSSNHAFSTSATRETLY
B24: Wildtype NTR: rat neurotensin receptor, parent (protein)
chain: B23 chain with A61H, A218I, A300F, A316F

Results on 24 molecules are retold here after US8785135B2, “Mutant G-protein coupled receptors and methods for selecting them” (Heptares Therapeutics Limited, priority 2007, dated 2014).

Numbering of substitutions follows the chain as printed. Names may count otherwise.

One data set is described as follows: Thermostability of NTR and mutants (3H-neurotensin binding). As to conditions: Ligand(+) format. The data set is classed as physicochemical. As to the method:
FIG. 12 Flow chart showing the two different assay formats of ligand (+) and ligand (−) used to determine receptor thermostability.
• 1. 340 site-directed mutants have been made between residues 61-400 of NTR. • 2. Initially, all of these mutants were assayed for thermostability using an assay measuring ^3H-neurotensin (agonist) binding after the heating step. […] Mutants tested for thermostability by heating in the absence of the agonist were re-tested using a slightly different assay where the mutants were heated in the presence of ^3H-neurotensin (Ligand(+) format in FIG. 12). […] All of these also have increased thermostability. • 5. Preferred combinations are • a. Nag7m F358A+A86L+I260A+F342A Tm 51° C. (neurotensin bound) • b. Nag7n F358A+H103A+I260A+F342A Tm 51° C. (neurotensin bound) • Wildtype NTR has a Tm of 35° C. with neurotensin bound.
Turning to B1, the “thermostability, heated in the presence of 3H-neurotensin” value is “improved thermostability”.
Still for that read-out and setting: next, B2: “improved thermostability”; B3: “improved thermostability”; B4: “improved thermostability”.
The same measure, in the same setting: as for B5, the entry is “improved thermostability”.

The same data set, now with this note: heated in the absence of the agonist.
B6: the “thermostability, 3H-neurotensin (agonist) binding after the heating step” value (shortened to “thermostability, 3H-neurotensin”) was “small but significant increase in thermostability”.
Take B7: the “thermostability, 3H-neurotensin” value is “small but significant increase in thermostability”.
Still for that read-out and setting: next, B8: “small but significant increase in thermostability”; B9: “small but significant increase in thermostability”.
On to B10, for which the “thermostability, 3H-neurotensin” value is given as “small but significant increase in thermostability”.
On the same count and under the same terms, as for B11, the entry is “small but significant increase in thermostability”; as for B12, “small but significant increase in thermostability”; as for B13, “small but significant increase in thermostability”.
On the same count and under the same terms, as for B14, the entry is “small but significant increase in thermostability”.
On the same count and under the same terms, next, B15: “small but significant increase in thermostability”.
For the molecule B16, the “thermostability, 3H-neurotensin” value is on record as “small but significant increase in thermostability”.
Consider B3, for which the “thermostability, 3H-neurotensin” value is “small but significant increase in thermostability”.
On the same count and under the same terms, as for B17, the entry is “small but significant increase in thermostability”.
For B18, the “thermostability, 3H-neurotensin” value is on record as “small but significant increase in thermostability”.
On the same count and under the same terms, next, B4: “small but significant increase in thermostability”.
Same read-out and setting: as for B19, the entry is “small but significant increase in thermostability”; as for B20, “small but significant increase in thermostability”; as for B21, “small but significant increase in thermostability”.
The same measure, in the same setting: next, B22: “small but significant increase in thermostability”.

The same data set, now with this note: neurotensin bound.
As for B23, the Tm was 51 °C.
Same read-out and setting: next, B24: 35 °C.
